Assay results reported in patent US20200264162A1.

Target: tau-RFP (full-length 2N4R wild-type tau fused to the N-terminus of TagRFP) (UniProt P10636)
Assay: fluorescence lifetime FRET in live HEK293 cells, titration of tau-RFP acceptor to tau-GFP donor

## tau-GFP (full-length 2N4R wild-type tau fused to the N-terminus of EGFP) (from UniProt P10636 2-758)
  maximum energy transfer efficiency (E): 0.086
